Assay: yeast display, Sf9 membrane polyspecificity reagent, FACS + sequencing; frameworks hold sequencing errors
Method in brief: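 Using colony PCR, genes from sorted yeast display clones were amplified, then sequenced on MiSeq at 2 × 250 and filtered by CDR length. The clones had been stained with 10% biotinylated, detergent-solubilized Sf9 membrane reagent for 1 hour at 4 °C and sorted by FACS into low and high (top ~1%) gates on anti-HA and streptavidin fluorescence. Polyreactivity labels come from the gate of origin.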

| Sequence | polyreactivity (PSR sort gate) |
| --- | --- |
| QVQLVESGGGLVQAGGSLRLSCAASGRSIYRNAMGWYRQAPGKERELVAAISGRGGGTYYADSVKGRFTLSRDNAKNTVYLQMNSVKPEETAVYYCAAERKNKYDYWGQGTQVTVSS | high polyreactivity |
| QVQLVESVVGLVQAGGSLLLSCDASGGIFLRYAMGSYRQAPGKERELVARISNRGGSTYYADSVKGRFTISRDYAKNTVYLQMNSLKPEDTAVYYCAADRWSSSRGDYWGQGTQVTVSS | low polyreactivity |
| QVQLVESGRGLVQEGGSLRLSCAASGRNVVFYTMGWNRQEPVKERELVATISIRGSTYYADSVKGRFTISRDNAKNTVYLKMNSLKPEDTAVYYCAAVYYSYYSFSYNYWGQGTVVTVSS | low polyreactivity |
| QVQLVESGGGLVQAGGSLRLSCAASGSIFRINAMGWYRQAPGKERELVAAISWSGGSTYYADSVKGRFTISRDNAKNTVYLQMNSLKPEDTAVYYCAAVVSKSSFDYWGQGTQVTVSS | low polyreactivity |
| QVQLVESGGGLVQAGGSLRLSCAASGSTFIYYAMGWYRQAPGKERELVAGISIRGGSTYADSVKGRFTISRDNAKNTVYLQMNSVKPEDTAVYYCNAYKRIKANGYAIRYYYWGQGTQVTVSS | high polyreactivity |
| QVQLVESGGGLVQAGGSLRLSCAASGRIFDLYAMRWYRQAPGKESELVAAISIRGGSTYYADSVKGRFTISRDNAKNTVYLQMNSLKPEDTAVYYCAAEGPWLSDEYDYWGQGTQVTVSS | low polyreactivity |
| QVQLVESVGGLLQAGGSLRLSCAASGFTFSGNGRGWYRQAPGKERELVAAITSTGNTYYADSVKGRFTISRDNAKKTVYLQMNRLKPEDTAVYYCARRGDLLYDYWGQGTQVTVSS | low polyreactivity |
| QVQLVESGGGLVQAGGSLRLSCAASGLTFFRNAMGWYRQAPGKEREFVAGITSTDGSTYYADSVKGRFTISRDNAKNTVYLQMNSLKPEDTAVYYCAAAYRVRGRTYDAWGQGTQVTVSS | high polyreactivity |
| QVQLVESGGGLVQAGGSLRLSCAASGRTFGRYAMGWYRQAPGKERELVAAINSGSASTYYADSVKGRFTISRDNAKNTVYLQMNSLKPEDTAVYYCAVYGYWSKSDYWGQGTQVTVSS | high polyreactivity |
| QVQLVESGGGLVQAGGSLRLSCAASGIIFIYNAMGWYRQAPGKERELVADIRRSGSTSYADSVKGRFTISRDNAKNTVYLQMNSLKPEDTAVYYCAADTSTWFGAYYLRDPYDYWGQGTQVTVSS | low polyreactivity |
| QVQLVESGGGLLQAAGSLRLSCAASGIIFHIYAMGWYRQAPGKERELVAAISTGSSTYYADSVKGRFTISRDNAKNTVYLQMKSLKPEDTAVYYCNAVSRLLWVKGFDYWGQGTQVTVSS | low polyreactivity |
| QVQLVESGGGLVQAGGSLRLSCAASGIIFGYYAMGWYRQAPGKERELVASIIWSGGSTYYADSVKGRFTISRDNAKNTVYLQMNSLKPEDTAVYYCAAYRYQEYDYWGQGTQVTVSS | high polyreactivity |
| QVQLVESGGGLVQAGGSLRLSCAASGITFRYYAMGWYRQAPGKERELVATITRGGSTYYADSVKGRFTISRDNAKNTVYLQMNSLKPEDTAVYYCAARQWYRYKVRFDYWGQGTQVTVSS | high polyreactivity |
| QVQLVESGGGLVQAGGSLRLSCAASGSTFYANAKGWYRQAPGKERELVAAISSTGGSTYYADSVKGRFTISRDNAKNTVYLQMNSLKPEDTAVYYCAARARWIVAYDLGYWGQGTQVTVSS | low polyreactivity |
| QVQLVESGGGLVQAGGSLRLSCAASGRIFKQYAMGWYRQAPGKEREFVAAISSRGTRTYYADSVKGRFTISRDNAKNTVYLQMISLKPEDTAVYYCNAVQAQAAYEYWGQGTQVTVSS | high polyreactivity |
| QVQLVESGGGLVQAGGSLRLSCAASGRTFKYYTMGWYRQAPGKERELVAAITSDGSTNYADSVKGRFTISRDNAKNTVYLQMNSLKPEDTAVYYCAAEIRWVFLSYEYWGQGTQVTVSS | high polyreactivity |
| QFQLVESGGGLVQAGGSLRLSCAASGFTFVSNDMGWYRQAPGKVRELVAAISQGGGSTYYADSVKGRFTISRDNAKNTVYLQMNSLKPEDNAVYYCDAEDVYFGYDYSGQGTQVTVSS | low polyreactivity |
| QVQLVESGGGLVQAGGSLRISCAASGSNFASYAMGWYRQAPGKERELVSVITSGGRTYYADSVKGRFTISRDNAKNTVYLQMNSLKPEDTAVYYCKAYLFFLNRVWSFDYWGQGTQVTVSS | high polyreactivity |
| QVQLVESGGGLVQAGGSLRLSCAASGSIFDPYAMGWYRQAPGKEREFVAALSWSGGSTYYADSVKGRFTISRDNAKNTVYLQMNSLKPEDTAVYYCATDWGDPYGYDYWGQGTQVTVSS | low polyreactivity |
| QVQLVESGGGLVQAGGSLRLSCAASGRTFTPNAMGWYRQAPGKDRELVAAITSTGGRTYYADSVKGRFTISRDNAKNTVYLQMNSLKPDDTAVYYCAVSYRYLRKYGYWGQGTQVTVSS | high polyreactivity |
| QVQLVESGGGLVQAGGSLRLSCAASGIIFSTYAMGWYRQAPGKERELVAAISVSGGRTYYADSVKGRFTISRDNAKNTVYLQMNSLKREDTAVYSCNALSSTEYDYWGQGTQVTVSS | high polyreactivity |
| QVQLVESGGGLVQAGGSLRLSCAASGRIFPRYAMGWYRQAPGKERELVARITRRGGITYYADSVKGRFTISRDNAKNTVYLQMNSLTPEDTAVYYCNVDYYRGGDFSYGYDYWGQGTQVTVSS | high polyreactivity |

| Sequence | polyreactivity (PSR sort gate) |
| --- | --- |
| QVQLVESGGGLVQAGGSLRLSCAASGRIFLWYAMGWYRQAPGKERELVAGISSGASTYYADSVKGRFTISRDNAKNTVYLQMNSLKPEDTAVYYCAAPYYRLTGWSRYDYWGQGTQVTVSS | high polyreactivity |
| QVQLVESGGGLFQAGGSLRLSCAASGSTFIYYVMGWYRQAAGKVWELVAAISTSGGRTYYADSVKGRYTISRDNAMNTVSLLMNSLKPVVTAVYYCAAVARTNGSIKFESWGQGTQVTVSS | high polyreactivity |
| QVQLVESGGGLVQAGGSLRLSSAASGRTFQDNAMGSYRQAPGKERELVAAISWRGGSTNYADSVKGRFTISRDNAKNTVYLQMNSLIPEDTAVYYCNRDPRKYGKLDYWGQGTQVTVSS | low polyreactivity |
| QGQLVESGGGLVQAGGSLRLSCAASGGIFLGNAMGWYRQAPGKERELVASITRGGDTSYADSVKGRFTISRDNAKNTVYLQMNCLKPEDTAVYYCNADYYSVVEYDYWGQGTQLTVSS | low polyreactivity |
| QVQLVESGGGLVQAGGSLRLSCPASGRIFTYYTMGWYRQAPGKERELVASITGGGGRTYYADSVKGRFTISRDNAKNTVYLQMNSLKPEDTAVYYCNDRYPYPYWYTSYDYWGQGSQVTVSS | high polyreactivity |
| QVQLVESGGGLVQAGGSLRLSCAASGSTIDYYAMGWYRQAPGKERELVAAISWSGGSTYYADSVKGRFTISRDNAKNTVYLQMYSLKTEDTAVYYCAAYSAFYTGSYNGWSDYDYWGQGTQVTVSS | low polyreactivity |
| QVQLVESGAGLVQAGGSLRVSCAASGRTFAHYAMGWYRQAPGKERELVAAISSGASTNYADSVKGRFTISRDNAKNTVYLQMNSLKPEDTAVYYCAKQAKYHQGTYDYWGQGTQVTVSS | low polyreactivity |
| QVQLVESGGGLVQAGGSLRLSCAATRSIFSLYTMGWYRQAPGKERELVAVISSAGRTYYADSVKGRFTISRDNGKNTVYLQMNSLKPEDTAVYYCARLTGQRTQTRSDYWGQGTQVTVSS | high polyreactivity |
| QVQLVESGGGLVQAGGSLRLSCAASGRTFNSTAMGWYRQAPGKERELVAAITRSGGSTYYADSVKGRFTISRDYAKNTVYLQMISQKPEDTAVNYCITTRWTQRTSFDYWGQGTQVTVSS | low polyreactivity |
| QVQLVESGGGLVQAGGSLRLSCAASGRIFYHNTMGWYRQAPGKEREFVAAISKRGGNTYYADSVKGRFTISRDNAKNTVYLQMNSLKPEDTAVYYCNRRNAWSRGEYWGQGTQVTVSS | high polyreactivity |
| QVQLVESGGGLVQAGGSLSLSCDASGSIIQGYAMGWYRQAPGKERELVAAISWSGTSTYYADSVKGRFTISRDNAKNTVYLQMNSLKPEDTEVYYCATDYYYYTAEYEYWGQGTQVTVSS | high polyreactivity |
| QVQLVESGGGLVQAGGSLRLSCAASGSTFVFYTMGWYRQAPGKEREFVASISGSGGSTYYADSVKGRFTISRDNAKNTVYLQMNSLKPEVSAVYYCAAGYPYYYWTPYYYWGQGTQVTLSS | high polyreactivity |
| QVQLVESGGGLVQAGGSLRLSCAASGIICVKYTMGWYRQAPGKERELVAAISRSGGSTYYADSVKGRFTISRDNAKNTVYLQMNSLKPEDTAVYYCNAVSRKVYPGPMDYWGHGTQVTVSS | high polyreactivity |
| QVQLVESGGGLVQAGGSLRLSCAASGSNFVYNAMGWYRPAPGKERELVAAITGRVGSTYYADSVKGRFTISRDNAKNTVYLQMISLKPEDTAVYYCAARSYFKWWYAMDYWGQGTQVSVSS | high polyreactivity |
| QVQLVESGGGLVQAGGSLRLSCAASGLILRYNGMGWYRQAPGKERELVAAISSNAGTTSYADSVKGRFTISRDNAKNTVYLQMNSLKPEDTAVYWGQGTQVTVSS | low polyreactivity |
| QVHLVQSGGGLVQAGGSLRLSCAASGRTFYIYAMGCYRQAPGKERELVAAISWRGGSTYYANSVKGRFTISLDHAKYTVYLQMNSLKPEDTAVYYCAAEGAHVKWYRNWWEYDDWGQGTQVTVSS | high polyreactivity |
| QVQLVESGGGLVQAGGRLRLSCAASGRIFVYNAMGWYRQAPGKERELVAAINYRGTRTYYADSVKGRFTISRDNAKNTVYLQLNSLKPEDTAVYYCATYLVTGGGLNVRYDYWGQGTQVTVSS | high polyreactivity |
| QVQLVESGGGLVQAGGSLRLSCAASGSTLQRYAMGWYRQAPGKEREFVAAINWSGSNTYYADSVKGRFTISRDNAKNTVYLQMNSLKPEDTAVYYCATNTWLFGGNYWGQGTQVTVSS | high polyreactivity |
| QVQLVESGGGLVQAGGRHRLSCAASGRTFGVYAMGWYRQAPGKEREFVGVISWSDDSTYYADSVKGRFTISRDNAKNTVSLQMNSLKPEDTAVYYCNADDYLVYSGSHYGYWGQGTQVTVSS | low polyreactivity |
| QVQLVESGGGLVQAGGSLRLSCAASGSTFGYYTMGWYRQAPGKERELVAALTWSGGSTYYADSVKGRFTISRDNAKNTVYLQMNSLKPEDTAVYYCAADDYWTPFGYWGQGSQVTVSS | low polyreactivity |
| QVQLVESGGGLVQAGGSLRLSCAASGRTLYQYAMGWYRQAPGKERELVAAITWNGGSTYYADSVKGRFTISRDNAKNTVYLQMNSLKPEDTAVYYCAADTVRPWYAYKAHDYWGQGTQVTVSS | low polyreactivity |
